Target: angiotensin AT1 receptor (on human umbilical vein endothelial cells) (human) (UniProt P30556)
Assay: cell-based or functional assay

UniProt P30556, sequence (P30556 whole entry): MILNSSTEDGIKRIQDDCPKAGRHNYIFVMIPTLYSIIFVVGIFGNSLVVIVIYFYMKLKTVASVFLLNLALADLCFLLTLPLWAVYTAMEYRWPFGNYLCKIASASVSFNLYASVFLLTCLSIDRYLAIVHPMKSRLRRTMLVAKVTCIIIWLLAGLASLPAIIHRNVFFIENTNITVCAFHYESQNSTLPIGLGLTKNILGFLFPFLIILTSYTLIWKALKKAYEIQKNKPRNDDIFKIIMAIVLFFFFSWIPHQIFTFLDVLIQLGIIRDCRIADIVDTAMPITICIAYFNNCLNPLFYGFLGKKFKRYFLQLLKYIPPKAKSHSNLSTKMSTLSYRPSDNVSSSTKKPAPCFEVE

des-aspartate-angiotensin I (from UniProt P01019 26-34) (peptide)
release of PGE2 and PGI2 from HUVEC (effective concentration of DAA-I): 100 pM

Source: patent US20170274038A1
